The source of these data is article PMC4995099, “Drosophila Nanos acts as a molecular clamp that modulates the RNA-binding and repression activities of Pumilio”.

Data set [1] concerns the target T1, Pum RNA-binding domain (aa1091-1426) with N-terminal triple FLAG tag, EMSA construct (Drosophila melanogaster, UniProt P25822-1 1091-1426).
T1 chain: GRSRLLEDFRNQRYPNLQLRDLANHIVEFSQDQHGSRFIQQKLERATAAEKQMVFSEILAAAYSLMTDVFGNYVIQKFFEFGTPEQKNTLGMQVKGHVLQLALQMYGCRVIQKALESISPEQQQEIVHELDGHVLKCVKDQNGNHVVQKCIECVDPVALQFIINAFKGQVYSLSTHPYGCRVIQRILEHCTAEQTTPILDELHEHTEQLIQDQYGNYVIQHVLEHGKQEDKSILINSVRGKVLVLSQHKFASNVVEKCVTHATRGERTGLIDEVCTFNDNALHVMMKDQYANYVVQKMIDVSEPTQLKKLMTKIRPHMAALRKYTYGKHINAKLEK
Briefly: EMSA, Nos binding to Pum–hb NRE2 RNA complex (100 nM Pum).

Data set [2] deals with T2, Pum PUM-HD WT (EMSA) (UniProt P25822 1091-1426).
T2 sequence: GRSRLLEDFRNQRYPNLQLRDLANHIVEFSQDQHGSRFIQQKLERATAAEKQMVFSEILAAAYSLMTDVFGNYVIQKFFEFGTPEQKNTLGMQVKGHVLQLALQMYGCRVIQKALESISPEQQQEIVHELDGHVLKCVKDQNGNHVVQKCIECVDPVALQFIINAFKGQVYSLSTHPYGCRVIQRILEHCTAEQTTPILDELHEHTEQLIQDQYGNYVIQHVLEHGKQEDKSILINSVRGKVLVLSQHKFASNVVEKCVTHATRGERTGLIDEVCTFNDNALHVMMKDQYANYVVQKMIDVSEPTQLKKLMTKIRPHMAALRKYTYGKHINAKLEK
In words: EMSA; no stable binary complex; EMSA: 50 mM Tris-HCl pH 7.6, 150 mM NaCl, 2 mM DTT, 2 ug/mL BSA, 0.01% Igepal CA-630, 0.02% bromophenol blue, 20% glycerol, 3 h at 4 C; 1 nM Cy5 RNA or 0.3 nM 32P RNA. To be noted: protein: recombinant; tags: N-terminal 3xFLAG; Halo-tag removed by TEV; label: 5' 32P.

Data set [3] addresses T3, Pum PUM-HD WT (EMSA);Nos ZC WT (EMSA) (Drosophila melanogaster?;Drosophila …, UniProt P25822;P25724 1091-1426;289-401, |).
T3 sequence 1: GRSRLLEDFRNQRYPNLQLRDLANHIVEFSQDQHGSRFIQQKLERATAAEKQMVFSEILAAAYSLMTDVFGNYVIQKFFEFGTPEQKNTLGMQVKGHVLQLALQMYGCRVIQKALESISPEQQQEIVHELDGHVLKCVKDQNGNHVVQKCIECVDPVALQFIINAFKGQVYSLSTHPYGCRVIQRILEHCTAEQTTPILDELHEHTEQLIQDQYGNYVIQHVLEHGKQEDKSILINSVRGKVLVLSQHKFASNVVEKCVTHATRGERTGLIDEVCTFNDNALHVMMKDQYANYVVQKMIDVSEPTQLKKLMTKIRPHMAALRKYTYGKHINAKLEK
T3 sequence 2: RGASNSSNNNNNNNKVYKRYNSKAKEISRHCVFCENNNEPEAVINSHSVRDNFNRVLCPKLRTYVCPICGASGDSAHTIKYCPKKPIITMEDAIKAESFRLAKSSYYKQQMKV
Briefly: EMSA; 1 uM Nos ZC; Kd only in figure; EMSA: 50 mM Tris-HCl pH 7.6, 150 mM NaCl, 2 mM DTT, 2 ug/mL BSA, 0.01% Igepal CA-630, 0.02% bromophenol blue, 20% glycerol, 3 h at 4 C; 1 nM Cy5 RNA or 0.3 nM 32P RNA. To be noted: protein: recombinant;recombinant, tags: N-terminal 3xFLAG, Halo-tag removed by TEV;C-terminal V5, copies: 1;1, label: 5' 32P.

For data set [4], the target named is T4, Drosophila Pum RNA-binding domain (amino acids 1091–1426), crystallisation construct (Drosophila melanogaster) (UniProt P25822).
T4 sequence: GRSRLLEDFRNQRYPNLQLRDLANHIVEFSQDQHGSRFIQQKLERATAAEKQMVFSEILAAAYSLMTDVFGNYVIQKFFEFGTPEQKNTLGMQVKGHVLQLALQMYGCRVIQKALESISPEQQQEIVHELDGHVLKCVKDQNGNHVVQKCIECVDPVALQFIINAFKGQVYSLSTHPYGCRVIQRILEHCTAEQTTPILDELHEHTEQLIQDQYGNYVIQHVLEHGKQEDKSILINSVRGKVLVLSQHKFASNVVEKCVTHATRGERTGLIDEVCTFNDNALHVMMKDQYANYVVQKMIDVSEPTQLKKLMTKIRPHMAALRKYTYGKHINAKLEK

The target of data set [5] is T2, Pum PUM-HD WT (EMSA). In words: EMSA; no stable binding; EMSA: 50 mM Tris-HCl pH 7.6, 150 mM NaCl, 2 mM DTT, 2 ug/mL BSA, 0.01% Igepal CA-630, 0.02% bromophenol blue, 20% glycerol, 3 h at 4 C; 1 nM Cy5 RNA or 0.3 nM 32P RNA. To be noted: protein: recombinant; tags: N-terminal 3xFLAG; Halo-tag removed by TEV; label: 5' 32P.
Data set [6] concerns the target T3, Pum PUM-HD WT (EMSA);Nos ZC WT (EMSA). Briefly: EMSA; Pum titrated, 1 uM Nos ZC constant; EMSA: 50 mM Tris-HCl pH 7.6, 150 mM NaCl, 2 mM DTT, 2 ug/mL BSA, 0.01% Igepal CA-630, 0.02% bromophenol blue, 20% glycerol, 3 h at 4 C; 1 nM Cy5 RNA or 0.3 nM 32P RNA. Particulars: protein: recombinant;recombinant, tags: N-terminal 3xFLAG, Halo-tag removed by TEV;C-terminal V5, copies: 1;1, label: 5' 32P.

In data set [7] the target is T2, Pum PUM-HD WT (EMSA). In words: EMSA; EMSA: 50 mM Tris-HCl pH 7.6, 150 mM NaCl, 2 mM DTT, 2 ug/mL BSA, 0.01% Igepal CA-630, 0.02% bromophenol blue, 20% glycerol, 3 h at 4 C; 1 nM Cy5 RNA or 0.3 nM 32P RNA. To be noted: protein: recombinant; tags: N-terminal 3xFLAG; Halo-tag removed by TEV.
Data set [8] has as its target T5, Pum RNA-binding domain (crystal) (UniProt P25822 1091-1426).
T5 sequence: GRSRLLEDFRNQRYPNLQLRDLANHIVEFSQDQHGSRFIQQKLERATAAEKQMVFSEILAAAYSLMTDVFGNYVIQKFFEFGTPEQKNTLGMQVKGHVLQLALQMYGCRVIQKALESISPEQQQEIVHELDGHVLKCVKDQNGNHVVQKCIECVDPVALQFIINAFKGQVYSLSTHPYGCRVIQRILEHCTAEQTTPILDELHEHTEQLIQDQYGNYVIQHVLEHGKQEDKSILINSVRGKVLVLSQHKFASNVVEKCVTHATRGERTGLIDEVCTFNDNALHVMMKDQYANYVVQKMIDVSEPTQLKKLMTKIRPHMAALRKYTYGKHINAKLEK
Briefly: X-ray crystallography; 1.14 A; EMSA: 50 mM Tris-HCl pH 7.6, 150 mM NaCl, 2 mM DTT, 2 ug/mL BSA, 0.01% Igepal CA-630, 0.02% bromophenol blue, 20% glycerol, 3 h at 4 C; 1 nM Cy5 RNA or 0.3 nM 32P RNA. Particulars: protein: recombinant; tags: His6-SUMO removed by Ulp1.

B1: Nos ZC (aa289-401) with C-terminal V5 epitope, EMSA construct (domain or fragment)
chain: RGASNSSNNNNNNNKVYKRYNSKAKEISRHCVFCENNNEPEAVINSHSVRDNFNRVLCPKLRTYVCPICGASGDSAHTIKYCPKKPIITMEDAIKAESFRLAKSSYYKQQMKV
modifications: two Zn2+ bound by the CCHC zinc fingers; C-terminal V5 epitope omitted
B1: the Kd in data set [1] worked out at 4.6 nM.

With GAAUUGUAUAUAUUCG (ssRNA) [hb NRE1 RNA], the results for the binding result (in the data set with Pum PUM-HD WT (EMSA) [2]; in data set [3]) were “no binding” and “binds”, respectively.

B2: Halo-Nos Δ383–393 (aa1-382 + 394–401) (natural protein)
chain: MFRSNLEGSGAAADNFSAFHARGGLNILGLQDMYLDTSGANSSATLSPPITPVTPDPSTSAQSTHFPFLADSAATANSLLMQRQYHYHLLLQQQQQLAMAQHQLALAASAAAASASHQQTDEIARSLKIFAQVTTGAAENAAGSMQDVMQEFATNGYASDDLGRMSYGSAPPQVQMPPQQQHQQQQGLHLPLGRNPAQLQTNGGNLMPIPLATHWLNNYREHLNNVWRNMSYIPAAPNTMGLQAQTAATVSTNLGVGMGLGLPVQGEQLRGASNSSNNNNNNNKVYKRYNSKAKEISRHCVFCENNNEPEAVINSHSVRDNFNRVLCPKLRTYVCPICGASGDSAHTIKYCPKKPIITMEDAIYYKQQMKV
Molecule B2 gave a percent repression of the RnLuc WT hb 3´UTR reporter in D.mel-2 cells (endogenous Pum), against Halo-tag alone in data set [4] of 43%.

Take AAAUUGGACAUAAGCC (ssRNA) [hb NRE2 +3G RNA]: the binding result with Pum PUM-HD WT (EMSA) [5] was “no binding”. In addition, the Kd in data set [6] came to 59.9 nM.

With AACUUGUACAUAAGCC (ssRNA) [hb NRE2 -2C RNA], the binding result with Pum PUM-HD WT (EMSA) [7] is recorded as “binds”.

B3: Halo-Nos Δ376–382 (aa1-375 + 383–401) (natural protein)
chain: MFRSNLEGSGAAADNFSAFHARGGLNILGLQDMYLDTSGANSSATLSPPITPVTPDPSTSAQSTHFPFLADSAATANSLLMQRQYHYHLLLQQQQQLAMAQHQLALAASAAAASASHQQTDEIARSLKIFAQVTTGAAENAAGSMQDVMQEFATNGYASDDLGRMSYGSAPPQVQMPPQQQHQQQQGLHLPLGRNPAQLQTNGGNLMPIPLATHWLNNYREHLNNVWRNMSYIPAAPNTMGLQAQTAATVSTNLGVGMGLGLPVQGEQLRGASNSSNNNNNNNKVYKRYNSKAKEISRHCVFCENNNEPEAVINSHSVRDNFNRVLCPKLRTYVCPICGASGDSAHTIKYCPKKPIKAESFRLAKSSYYKQQMKV
Turning to B3, in data set [4], the percent repression of the RnLuc WT hb 3´UTR reporter in D.mel-2 cells (endogenous Pum), against Halo-tag alone amounted to 27%.

B4: Halo-tagged, full-length Nos protein (NZC) (natural protein)
chain: MFRSNLEGSGAAADNFSAFHARGGLNILGLQDMYLDTSGANSSATLSPPITPVTPDPSTSAQSTHFPFLADSAATANSLLMQRQYHYHLLLQQQQQLAMAQHQLALAASAAAASASHQQTDEIARSLKIFAQVTTGAAENAAGSMQDVMQEFATNGYASDDLGRMSYGSAPPQVQMPPQQQHQQQQGLHLPLGRNPAQLQTNGGNLMPIPLATHWLNNYREHLNNVWRNMSYIPAAPNTMGLQAQTAATVSTNLGVGMGLGLPVQGEQLRGASNSSNNNNNNNKVYKRYNSKAKEISRHCVFCENNNEPEAVINSHSVRDNFNRVLCPKLRTYVCPICGASGDSAHTIKYCPKKPIITMEDAIKAESFRLAKSSYYKQQMKV
B4 gave a percent repression of the RnLuc WT hb 3´UTR reporter in D.mel-2 cells (endogenous Pum), against Halo-tag alone in data set [4] of 70%.

For UGAUUGUAGAUAUCUA (ssRNA) [bcd NRE RNA], the results for the binding result (with Pum PUM-HD WT (EMSA) [2]; in data set [3]) were “no binding” and “binds”, respectively.

For UGUACAUA (ssRNA) [hb PRE2 RNA 8-nt], the binding result in data set [8] is “binds”.
